# PMC2786245 (Biochemistry, 2009)
# Biological target: the molecule itself
# Experiment: native gel or EMSA
protein,measurement,value
"PII Δ47−53 (deletion of the apex of the T-loop) (natural protein, Escherichia coli, UniProt P0A9Z1 1-112, looked up) MKKIDAIIKPFKLDDVREALAEVGITGMTVTEVKGFGRQKGHTELYDFLPKVKIEIVVPDDIVDTCVDTIIRTAQTGKIGDGKIFVFDVARVIRIRTGEEDDAAI",binding result,binds
